Measured values reported in patent publication US10752676B2 (UCB Biopharma SPRL, priority 2011, dated 2020).

Experiments:
[1] = test system: Clostridium difficile strain ATCC43596; assay: Anti-C. difficile toxin Mab hamster infection study; format: in vivo, Golden Syrian hamsters; conditions: 5 mg/kg twice a day for 5 days (p.o.) on days 1-5
Description: The hamster infection study was performed by Ricerca Biosciences LLC, Cleveland, Ohio, USA. The study protocol was approved by the Ricerca IACUC committee. Active and control components (composition and dose) were blinded to Ricerca staff until after completion of the planned 28 day study period.
Golden Syrian male hamsters (weight 82-103 g, 54 days old) were individually housed in HEPA filtered disposable cages and fed Teklad Global Diet 2016 and water ad libitum. After acclimatisation, hamsters were pre-dosed (i.p.) with Mab mixtures or PBS (vehicle control) once a day for each of 4 days: days −3, −2, −1 and 0. Two doses of Mab were investigated: high dose=50 mg/kg each of anti-TcdA and anti-TcdB components and low dose 5 mg/kg each of anti-TcdA and anti-TcdB components.
Hamsters were sensitised (day −1) with 50 mg/kg of Clindamycin phosphate in PBS (s.c.) before being challenged 1 day later (day 0) with 3.4×106 c.f.u. of vegetative cells from strain ATCC43596. […]
Viability checks were performed on animals twice a day, animals found to be in extremis were euthanised and counted as dead. Body weights were determined on each day of dosing, then twice weekly and before euthanising survivors. […] Survival curves were analysed using the P value from the log rank test compared to the Bonferroni corrected threshold of P=0.005. […]

[2] = Thermal stability (Tm) measured via Thermofluor assay; format: physicochemical; conditions: PBS pH 7.40
Description: This method uses Sypro orange fluorescent dye to monitor the unfolding process of protein domains. The dye binds to exposed hydrophobic regions that become exposed as a consequence of unfolding which results in a change to the emission spectrum.
The sample (5 ul at 1 mg/ml) is mixed with a 5 ul of a stock solution of Sypro orange (30×) and the volume made up to 50 ul with PBS, pH 7.40.
10 ul aliquots of this solution is applied to wells in a 384 well plate (n=4).
The plate is placed in a 7900HT fast real-time PCR system containing a heating device for accurate temperature control. The temperature is increased from 20° C. to 99° C. (Ramp rate of 1.1° C./min). A CCD device simultaneously monitors the fluorescence changes in the wells. An algorithm is used to process intensity data and take into account multiple transitions.

[3] = Estimation of isoelectric point (pI) by capillary IEF; format: physicochemical
Description: Samples were prepared by mixing the following: 30 ul Protein sample at 2 mg/ml, 0.35% Methylcellulose, 4% pH3-10 ampholytes (Pharmalyte), synthetic pI markers (4.65 and 9.77), 1 ul of each stock solution, and HPLC grade water to make up the final volume to 200 ul. The mixture was then analysed using iCE280 IEF analyzer (pre-focusing at 1500V for 1 min followed by focusing at 3000V for 6 mins). The calibrated electropherograms were then integrated using Empower software (from Waters)

TcdA456 = TcdA456 (Clostridioides difficile, UniProt P16154); conditions: Purified Mab 5 point titration
Description: (§1) Kinetic constants for the interactions of anti-C. difficile TcdA and TcdB antibodies were determined by surface plasmon resonance conducted on a BIAcore 3000 using CM5 sensor chips. All experiments were performed at 25° C. Affinipure F(ab′)2 fragment goat anti-human IgG, Fc fragment specific (Jackson ImmunoResearch) was immobilised on a CM5 Sensor Chip (GE) via amine coupling chemistry to a capture level of ≈7000 response units (RUs).
(§2) Double referenced background subtracted binding curves were analysed using the BIAevaluation software (version 3.2) following standard procedures. Kinetic parameters were determined from the fitting algorithm

TcdB1234 = TcdB1234 (Clostridioides difficile, UniProt P18177); conditions: Purified Mab 3 point titration
Description: as §1, §2

Molecule: CN[C@H](CC(C)C)C(=O)N[C@H]1C(=O)N[C@@H](CC(N)=O)C(=O)N[C@H]2C(=O)N[C@H]3C(=O)N[C@H](C(=O)N[C@H](C(=O)O)c4cc(O)cc(O)c4-c4cc3ccc4O)[C@H](O)c3ccc(c(Cl)c3)Oc3cc2cc(c3O[C@@H]2O[C@H](CO)[C@@H](O)[C@H](O)[C@H]2O[C@H]2C[C@](C)(N)[C@H](O)[C@H](C)O2)Oc2ccc(cc2Cl)[C@H]1O [vancomycin]
- survival [1]: all died on days +10 and +11

B1: CA995: humanised anti-toxin A IgG1; light chain variable SEQ ID NO: 37, heavy SEQ ID NO: 39 (antibody, V domains shown)
VH: EVQLVESGGGLVQPGGSLRLSCTASGFSLSNYDMIWVRQAPGKGLEYIGFINTGGITYYASWAKGRFTISRDSSTVYLQMNSLRAEDTATYFCARVDDYIGAWGAGLWGQGTLVTVS
VL: DVVMTQSPSTLSASVGDRVTITCQASQSINNYFSWYQQKPGKAPKLLIYGAANLASGVPSRFKGSGSGTEYTLTISSLQPDDFATYSCQNNYGVHIYGAAFGGGTKVEIK
modifications: Antibody variable region for anti-TcdA antibody 995 (heavy chain); Antibody variable region for anti-TcdA antibody 995
- Tm(Fab) in PBS [2]: 71 °C
- measured pI [3]: 8.5
- ka (TcdA456): 287000 M⁻¹ s⁻¹
- kd (TcdA456): 3.42e-05 s⁻¹

B2: 1134.g5: anti-toxin B antibody; light chain variable SEQ ID NO: 147, heavy SEQ ID NO: 149 (antibody, V domains shown)
VH: EVQLQESGPGLVKPSETLSLTCTVSGFSLNSYTITWVRQPPGKGLEWIAAISGGGSTYFNSALKSRVTISRDTSKSQVSLKLSSVTAADTAVYYCTRPRWYPRSYFDYWGRGTLVTVS
VL: DVQLTQSPSFLSASVGDRVTITCKASKSISNHLAWYQEKPGKANKLLIHSGSTLQPGTPSRFSGSGSGTEFTLTISSLQPEDFATYYCQQYDEYPYTFGQGTRLEIK
modifications: Antibody variable region for anti-TcdB antibody 1134 (heavy chain); Antibody variable region for anti-TcdB antibody 1134
- Tm(CH2) [2]: 69.2 °C
- Tm(Fab) in PBS [2]: 76.4 °C
- measured pI [3]: 9.2
- ka (TcdB1234): 509000 M⁻¹ s⁻¹
- kd (TcdB1234): 2.45e-05 s⁻¹
